Source: article PMC11027413

Molecular target: RNA polymerase II (RNAPII) (human (endogenous in HepG2)) (UniProt P24928)
Assay: co-sedimentation; HepG2 cell lysate on a 10-40% glycerol gradient in NP-40 lysis buffer (50 mM HEPES pH 7.5, 100 mM NaCl), 50,000 rpm for 11 h at 4°C; fractions detected by Western blotting

Substance: RBM22 (endogenous) (from UniProt Q9NW64 1-420) (natural protein)
- percent of RBM22 linked with RNAPII: 40%
